Experimental data: patent publication US20230159662A1 (Kyowa Kirin, published 2023)
Substitutions are numbered along the chain they refer to. In names and notes the source's numbering stands.

B1: human IgG1 anti-human CCR4 antibody (KM2160), S298A/E333A/K334A (AAA)/P329R (antibody)
heavy: EVQLVESGGDLMKPGGSLKISCAASGFIFSNYGMSWVRQTPDMRLEWVATISSASTYSYYPDSVKGRFTISRDNAENSLYLQMNSLRSEDTGIYYCGRHSDGNFAFGYWGRGTLVTVSAASTKGPSVFPLAPSSKSTSGGTAALGCLVKDYFPEPVTVSWNSGALTSGVHTFPAVLQSSGLYSLSSVVTVPSSSLGTQTYICNVNHKPSNTKVDKKVEPKSCDKTHTCPPCPAPELLGGPSVFLFPPKPKDTLMISRTPEVTCVVVDVSHEDPEVKFNWYVDGVEVHNAKTKPREEQYNATYRVVSVLTVLHQDWLNGKEYKCKVSNKALRAPIAATISKAKGQPREPQVYTLPPSRDELTKNQVSLTCLVKGFYPSDIAVEWESNGQPENNYKTTPPVLDSDGSFFLYSKLTVDKSRWQQGNVFSCSVMHEALHNHYTQKSLSLSPGK
light: DVLMTQTPLSLPVSLGDQASISCRSSRNIVHINGDTYLEWYLQRPGQSPKLLIYKVSNRFSGVPDRFSGSGSGTDFTLKISRVEAEDLGVYYCFQGSLLPWTFGGGTRLEIRRTVAAPSVFIFPPSDEQLKSGTASVVCLLNNFYPREAKVQWKVDNALQSGNSQESVTEQDSKDSTYSLSSTLTLSKADYEKHKVYACEVTHQGLSSPVTKSFNRGEC
B2: human IgG1 anti-human CCR4 antibody (KM2160), S298A/E333A/K334A (AAA)/A330F (antibody)
heavy: B1 heavy with R331P, A332F
light: B1 light
B3: human IgG1 anti-human CCR4 antibody (KM2160), S298A/E333A/K334E (antibody)
heavy: B1 heavy with R331P, A336E
light: B1 light
B4: human IgG1 anti-human CCR4 antibody (KM2160), S298A/E333A/K334A (AAA)/A339T (antibody)
heavy: B1 heavy with R331P, A341T
light: B1 light
B5: human IgG1 anti-human CCR4 antibody (KM2160), S298A/E333A/K334A (AAA)/F372Y (antibody)
heavy: B1 heavy with R331P, F374Y
light: B1 light
B6: human IgG1 anti-human CCR4 antibody (KM2160), S298A/E333A/K334A (AAA)/V379M (antibody)
heavy: B1 heavy with R331P, V381M
light: B1 light
B7: human IgG1 anti-human CCR4 antibody (KM2160), S298A/E333A/K334A (AAA)/S239D/I332E (antibody)
heavy: B1 heavy with S241D, R331P, I334E
light: B1 light
B8: human IgG1 anti-human CCR4 antibody (KM2160), S298A/E333A/K334A (AAA)/E283L (antibody)
heavy: B1 heavy with E285L, R331P
light: B1 light
B9: human IgG1 anti-human CCR4 antibody (KM2160), printed as S298A/E333A/K334A, CH of SEQ ID NO 120 (antibody)
heavy: B1 heavy with A300T, R331P
light: B1 light
B10: human IgG1 anti-human CCR4 antibody (KM2160), S298A/E333A/K334A (AAA)/E294W (antibody)
heavy: B1 heavy with E296W, R331P
light: B1 light
B11: human IgG1 anti-human CCR4 antibody (KM2160), S298A/E333A/K334A (AAA)/Q295T (antibody)
heavy: B1 heavy with Q297T, R331P
light: B1 light
B12: human IgG1 anti-human CCR4 antibody (KM2160), S298A/E333A/K334A (AAA)/A327D (antibody)
heavy: B1 heavy with A329D, R331P
light: B1 light
B13: human IgG1 anti-human CCR4 antibody (KM2160), S298A/E333A/K334A (AAA)/L235T (antibody)
heavy: B1 heavy with L237T, R331P
light: B1 light
B14: human IgG1 anti-human CCR4 antibody (KM2160), S298A/E333A/K334A (AAA)/G236S (antibody)
heavy: B1 heavy with G238S, R331P
light: B1 light
B15: human IgG1 anti-human CCR4 antibody (KM2160), S298A/E333A/K334A (AAA)/S239D (antibody)
heavy: B1 heavy with S241D, R331P
light: B1 light
B16: human IgG1 anti-human CCR4 antibody (KM2160), S298A/E333A/K334A (AAA)/F243L (antibody)
heavy: B1 heavy with F245L, R331P
light: B1 light
B17: human IgG1 anti-human CCR4 antibody (KM2160), S298A/E333A/K334A (AAA)/K248M (antibody)
heavy: B1 heavy with K250M, R331P
light: B1 light
B18: human IgG1 anti-human CCR4 antibody (KM2160), S298A/E333A/K334A (AAA)/E258H (antibody)
heavy: B1 heavy with E260H, R331P
light: B1 light
B19: human IgG1 anti-human CCR4 antibody (KM2160), S298A/E333A/K334A (AAA)/D265G (antibody)
heavy: B1 heavy with D267G, R331P
light: B1 light
B20: human IgG1 anti-human CCR4 antibody (KM2160), S239D (antibody)
heavy: not shown
light: B1 light
B21: human IgG1 anti-human CCR4 antibody (KM2160), S239E (antibody)
heavy: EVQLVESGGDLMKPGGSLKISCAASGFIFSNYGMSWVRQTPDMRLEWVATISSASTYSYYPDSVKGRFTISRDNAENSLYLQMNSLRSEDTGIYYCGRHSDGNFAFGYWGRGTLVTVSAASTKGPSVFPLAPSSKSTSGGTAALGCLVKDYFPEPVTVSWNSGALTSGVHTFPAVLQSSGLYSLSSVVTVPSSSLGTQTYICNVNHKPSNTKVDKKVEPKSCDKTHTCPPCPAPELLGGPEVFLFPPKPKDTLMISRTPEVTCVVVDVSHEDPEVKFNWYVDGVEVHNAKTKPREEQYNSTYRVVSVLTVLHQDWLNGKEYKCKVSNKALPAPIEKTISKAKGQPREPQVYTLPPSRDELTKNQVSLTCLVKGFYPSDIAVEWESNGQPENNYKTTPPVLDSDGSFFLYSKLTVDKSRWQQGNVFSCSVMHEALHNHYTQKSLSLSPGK
light: B1 light
B22: human IgG1 anti-human CCR4 antibody (KM2160), S239D/I332D (antibody)
heavy: not shown
light: B1 light
B23: human IgG1 anti-human CCR4 antibody (KM2160), S239D/I332T (antibody)
heavy: not shown
light: B1 light
B24: human IgG1 anti-human CCR4 antibody (KM2160), S239D/I332L (antibody)
heavy: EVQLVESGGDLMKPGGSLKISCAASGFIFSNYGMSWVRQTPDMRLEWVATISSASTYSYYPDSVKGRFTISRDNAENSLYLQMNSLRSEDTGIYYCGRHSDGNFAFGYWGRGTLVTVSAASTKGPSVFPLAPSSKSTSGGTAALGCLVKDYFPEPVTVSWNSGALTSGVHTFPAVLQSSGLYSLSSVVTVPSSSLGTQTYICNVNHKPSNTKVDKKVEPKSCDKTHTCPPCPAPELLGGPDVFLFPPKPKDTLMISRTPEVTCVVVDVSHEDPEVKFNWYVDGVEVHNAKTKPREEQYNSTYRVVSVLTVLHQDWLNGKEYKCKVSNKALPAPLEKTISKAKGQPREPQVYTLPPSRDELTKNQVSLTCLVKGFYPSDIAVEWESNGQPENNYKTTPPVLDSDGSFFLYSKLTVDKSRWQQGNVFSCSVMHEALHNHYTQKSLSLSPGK
light: B1 light
B25: human IgG1 anti-human CCR4 antibody (KM2160), S239D/I332A (antibody)
heavy: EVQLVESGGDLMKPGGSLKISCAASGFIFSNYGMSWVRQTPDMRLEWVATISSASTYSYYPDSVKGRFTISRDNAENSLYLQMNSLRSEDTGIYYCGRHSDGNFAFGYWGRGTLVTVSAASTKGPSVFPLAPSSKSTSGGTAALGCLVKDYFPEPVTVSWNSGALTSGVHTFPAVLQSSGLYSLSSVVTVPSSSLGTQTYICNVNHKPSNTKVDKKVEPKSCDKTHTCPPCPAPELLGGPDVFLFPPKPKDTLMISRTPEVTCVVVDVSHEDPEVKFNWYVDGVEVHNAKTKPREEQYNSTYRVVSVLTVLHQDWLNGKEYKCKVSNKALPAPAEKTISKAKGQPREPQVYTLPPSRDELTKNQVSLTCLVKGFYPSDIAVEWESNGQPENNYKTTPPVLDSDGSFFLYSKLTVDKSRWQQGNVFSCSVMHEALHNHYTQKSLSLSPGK
light: B1 light
B26: human IgG1 anti-human CCR4 antibody (KM2160), S239D/I332Y (antibody)
heavy: not shown
light: B1 light
B27: human IgG1 anti-human CCR4 antibody (KM2160), S239D/I332F (antibody)
heavy: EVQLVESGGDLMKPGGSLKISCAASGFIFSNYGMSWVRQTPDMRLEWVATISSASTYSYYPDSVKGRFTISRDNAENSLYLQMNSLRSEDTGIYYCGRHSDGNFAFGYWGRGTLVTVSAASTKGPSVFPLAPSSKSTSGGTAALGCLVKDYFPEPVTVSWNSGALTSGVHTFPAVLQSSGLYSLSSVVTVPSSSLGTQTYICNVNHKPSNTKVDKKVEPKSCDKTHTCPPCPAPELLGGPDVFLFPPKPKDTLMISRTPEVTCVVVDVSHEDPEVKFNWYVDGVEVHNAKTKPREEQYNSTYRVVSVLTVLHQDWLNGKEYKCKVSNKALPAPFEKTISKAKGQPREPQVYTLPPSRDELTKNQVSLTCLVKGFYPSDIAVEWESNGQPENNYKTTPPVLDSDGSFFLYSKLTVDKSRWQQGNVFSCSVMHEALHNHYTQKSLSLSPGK
light: B1 light
B28: human IgG1 anti-human CCR4 antibody (KM2160), S239D/I332W (antibody)
heavy: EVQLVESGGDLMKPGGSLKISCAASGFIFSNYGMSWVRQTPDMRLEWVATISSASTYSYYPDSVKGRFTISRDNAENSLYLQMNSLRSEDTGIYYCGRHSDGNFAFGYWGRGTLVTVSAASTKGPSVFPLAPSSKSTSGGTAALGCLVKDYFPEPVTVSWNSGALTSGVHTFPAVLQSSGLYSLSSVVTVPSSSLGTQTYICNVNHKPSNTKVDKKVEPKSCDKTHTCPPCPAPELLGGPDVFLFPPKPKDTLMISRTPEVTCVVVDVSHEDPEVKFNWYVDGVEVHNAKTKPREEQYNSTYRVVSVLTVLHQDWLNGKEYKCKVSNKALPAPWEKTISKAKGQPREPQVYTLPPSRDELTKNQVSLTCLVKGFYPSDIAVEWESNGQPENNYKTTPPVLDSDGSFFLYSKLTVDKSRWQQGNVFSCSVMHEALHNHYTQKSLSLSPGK
light: B1 light
B29: human IgG1 anti-human CCR4 antibody (KM2160), S239D/I332H (antibody)
heavy: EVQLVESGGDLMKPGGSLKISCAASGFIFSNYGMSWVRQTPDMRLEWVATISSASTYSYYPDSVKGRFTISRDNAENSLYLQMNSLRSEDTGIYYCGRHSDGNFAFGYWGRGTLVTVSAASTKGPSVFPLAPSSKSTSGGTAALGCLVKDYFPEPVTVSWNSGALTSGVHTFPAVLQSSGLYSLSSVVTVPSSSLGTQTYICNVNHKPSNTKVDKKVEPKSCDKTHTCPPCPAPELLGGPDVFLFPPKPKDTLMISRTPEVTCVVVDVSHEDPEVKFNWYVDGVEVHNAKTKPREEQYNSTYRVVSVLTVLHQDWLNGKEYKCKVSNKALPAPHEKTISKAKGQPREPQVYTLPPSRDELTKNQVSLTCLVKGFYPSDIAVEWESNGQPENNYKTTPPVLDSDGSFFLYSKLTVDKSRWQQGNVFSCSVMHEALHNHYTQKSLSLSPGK
light: B1 light
B30: human IgG1 anti-human CCR4 antibody (KM2160), S239D/K326L (antibody)
heavy: not shown
light: B1 light
B31: human IgG1 anti-human CCR4 antibody (KM2160), S239D/K326E (antibody)
heavy: not shown
light: B1 light
B32: human IgG1 anti-human CCR4 antibody (KM2160), S239D/L326I (as printed) (antibody)
heavy: not shown
light: B1 light
B33: human IgG1 anti-human CCR4 antibody (KM2160), S239E/I332Y (antibody)
heavy: not shown
light: B1 light
B34: human IgG1 anti-human CCR4 antibody (KM2160), S239E/I332F (antibody)
heavy: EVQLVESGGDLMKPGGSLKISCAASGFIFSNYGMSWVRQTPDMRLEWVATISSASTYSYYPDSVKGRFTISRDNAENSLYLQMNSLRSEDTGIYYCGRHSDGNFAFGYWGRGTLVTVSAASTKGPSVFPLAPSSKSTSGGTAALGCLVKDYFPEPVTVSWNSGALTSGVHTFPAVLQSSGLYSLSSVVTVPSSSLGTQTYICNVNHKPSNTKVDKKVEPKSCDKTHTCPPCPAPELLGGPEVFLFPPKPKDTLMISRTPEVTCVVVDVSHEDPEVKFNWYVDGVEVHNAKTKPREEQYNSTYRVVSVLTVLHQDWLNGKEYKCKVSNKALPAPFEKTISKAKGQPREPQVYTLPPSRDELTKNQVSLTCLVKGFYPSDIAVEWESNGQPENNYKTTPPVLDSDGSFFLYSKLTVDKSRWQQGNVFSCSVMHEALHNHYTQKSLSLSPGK
light: B1 light
B35: human IgG1 anti-human CCR4 antibody (KM2160), S239E/I332W (antibody)
heavy: not shown
light: B1 light
B36: human IgG1 anti-human CCR4 antibody (KM2160), S239E/I332H (antibody)
heavy: not shown
light: B1 light
B37: human IgG1 anti-human CCR4 antibody (KM2160), S239E/I332E, CH of SEQ ID NO 176 (antibody)
heavy: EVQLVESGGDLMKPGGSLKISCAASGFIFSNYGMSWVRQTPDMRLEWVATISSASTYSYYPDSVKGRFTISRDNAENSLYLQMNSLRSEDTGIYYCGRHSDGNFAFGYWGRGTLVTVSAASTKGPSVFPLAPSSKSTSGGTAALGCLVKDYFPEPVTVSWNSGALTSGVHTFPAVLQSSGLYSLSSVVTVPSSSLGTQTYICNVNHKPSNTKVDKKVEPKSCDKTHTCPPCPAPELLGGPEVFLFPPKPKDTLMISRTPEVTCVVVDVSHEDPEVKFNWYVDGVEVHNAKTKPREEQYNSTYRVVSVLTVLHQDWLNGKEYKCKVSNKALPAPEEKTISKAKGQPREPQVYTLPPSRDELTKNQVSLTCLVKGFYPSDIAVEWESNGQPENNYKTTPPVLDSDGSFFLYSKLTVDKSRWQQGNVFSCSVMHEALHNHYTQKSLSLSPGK
light: B1 light
B38: human IgG1 anti-human CCR4 antibody (KM2160), printed as S239E/I332E, CH of SEQ ID NO 178 (antibody)
heavy: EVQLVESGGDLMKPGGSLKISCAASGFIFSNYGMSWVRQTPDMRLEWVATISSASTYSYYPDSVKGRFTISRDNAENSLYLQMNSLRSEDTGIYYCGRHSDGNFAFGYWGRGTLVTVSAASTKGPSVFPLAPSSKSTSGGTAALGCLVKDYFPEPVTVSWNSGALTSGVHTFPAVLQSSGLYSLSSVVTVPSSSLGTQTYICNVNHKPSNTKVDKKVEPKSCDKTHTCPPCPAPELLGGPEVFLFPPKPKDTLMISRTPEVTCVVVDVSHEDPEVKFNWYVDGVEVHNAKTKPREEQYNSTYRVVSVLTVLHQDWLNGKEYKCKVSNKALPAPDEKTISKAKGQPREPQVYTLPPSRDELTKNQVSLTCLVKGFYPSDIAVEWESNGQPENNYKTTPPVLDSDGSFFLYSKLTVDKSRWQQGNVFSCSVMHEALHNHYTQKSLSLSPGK
light: B1 light
B39: human IgG1 anti-human CCR4 antibody (KM2160), S239E/I332T (antibody)
heavy: not shown
light: B1 light
B40: human IgG1 anti-human CCR4 antibody (KM2160), S239E/I332L (antibody)
heavy: not shown
light: B1 light
B41: human IgG1 anti-human CCR4 antibody (KM2160), S239E/I332A (antibody)
heavy: not shown
light: B1 light
B42: human IgG1 anti-human CCR4 antibody (KM2160), S239E/K326T (antibody)
heavy: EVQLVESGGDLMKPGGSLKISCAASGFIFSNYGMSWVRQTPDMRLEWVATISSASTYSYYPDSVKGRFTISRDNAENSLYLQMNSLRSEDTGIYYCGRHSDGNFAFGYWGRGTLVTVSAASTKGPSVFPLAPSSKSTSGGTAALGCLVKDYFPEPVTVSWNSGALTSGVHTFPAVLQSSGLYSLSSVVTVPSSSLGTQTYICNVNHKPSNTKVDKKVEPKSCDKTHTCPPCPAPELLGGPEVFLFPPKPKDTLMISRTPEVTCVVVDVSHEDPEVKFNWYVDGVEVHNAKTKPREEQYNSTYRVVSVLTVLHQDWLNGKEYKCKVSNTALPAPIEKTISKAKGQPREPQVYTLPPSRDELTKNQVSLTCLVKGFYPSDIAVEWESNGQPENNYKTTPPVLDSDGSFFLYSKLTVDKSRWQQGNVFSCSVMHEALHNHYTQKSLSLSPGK
light: B1 light
B43: human IgG1 anti-human CCR4 antibody (KM2160), S239E/K326L (antibody)
heavy: not shown
light: B1 light
B44: human IgG1 anti-human CCR4 antibody (KM2160), S239E/K326E (antibody)
heavy: not shown
light: B1 light
B45: human IgG1 anti-human CCR4 antibody (KM2160), S239E/K326I (antibody)
heavy: not shown
light: B1 light

target: T1, human CD16a (Val type) stably expressed on NK-92 cells (NK-92/CD16 transfectant) (human, UniProt P08637 17-254); assay: cell-based or functional assay
T1 sequence (P08637 17-254 F176V): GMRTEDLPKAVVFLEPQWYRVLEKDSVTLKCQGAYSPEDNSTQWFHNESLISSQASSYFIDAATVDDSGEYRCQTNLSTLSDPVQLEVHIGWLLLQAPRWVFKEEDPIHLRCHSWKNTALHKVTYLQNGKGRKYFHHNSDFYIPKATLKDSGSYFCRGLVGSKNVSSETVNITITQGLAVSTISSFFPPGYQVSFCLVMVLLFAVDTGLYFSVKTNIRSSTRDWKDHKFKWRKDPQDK

Binder	relative ADCC activity (AAA = 100)
B1	5 relative, AAA at 0.1 µg/mL = 100
B2	96 relative, AAA at 0.1 µg/mL = 100
B3	114 relative, AAA at 0.1 µg/mL = 100
B4	36 relative, AAA at 0.1 µg/mL = 100
B5	70 relative, AAA at 0.1 µg/mL = 100
B6	51 relative, AAA at 0.1 µg/mL = 100
B7	119 relative, AAA at 0.1 µg/mL = 100
B8	82 relative, AAA at 0.1 µg/mL = 100
B9	-97 relative, AAA at 0.1 µg/mL = 100
B10	171 relative, AAA at 0.1 µg/mL = 100
B11	4 relative, AAA at 0.1 µg/mL = 100
B12	-28 relative, AAA at 0.1 µg/mL = 100
B13	-69 relative, AAA at 0.1 µg/mL = 100
B14	-46 relative, AAA at 0.1 µg/mL = 100
B15	291 relative, AAA at 0.1 µg/mL = 100
B16	79 relative, AAA at 0.1 µg/mL = 100
B17	165 relative, AAA at 0.1 µg/mL = 100
B18	94 relative, AAA at 0.1 µg/mL = 100
B19	-89 relative, AAA at 0.1 µg/mL = 100
B20	116 relative, AAA at 0.1 µg/mL = 100
B21	88 relative, AAA at 0.1 µg/mL = 100

target: T1, human CD16a (Val type) stably expressed …; assay: cell-based or functional assay; remark: another data set of the same source

Binder	relative ADCC activity (AAA = 100)
B22	150 relative, AAA at 0.1 µg/mL = 100
B23	72 relative, AAA at 0.1 µg/mL = 100
B24	82 relative, AAA at 0.1 µg/mL = 100
B25	94 relative, AAA at 0.1 µg/mL = 100
B26	123 relative, AAA at 0.1 µg/mL = 100
B27	93 relative, AAA at 0.1 µg/mL = 100
B28	94 relative, AAA at 0.1 µg/mL = 100
B29	84 relative, AAA at 0.1 µg/mL = 100
B30	113 relative, AAA at 0.1 µg/mL = 100
B31	147 relative, AAA at 0.1 µg/mL = 100
B32	146 relative, AAA at 0.1 µg/mL = 100
B33	130 relative, AAA at 0.1 µg/mL = 100
B34	34 relative, AAA at 0.1 µg/mL = 100
B35	44 relative, AAA at 0.1 µg/mL = 100
B36	71 relative, AAA at 0.1 µg/mL = 100
B37	153 relative, AAA at 0.1 µg/mL = 100
B38	90 relative, AAA at 0.1 µg/mL = 100
B39	52 relative, AAA at 0.1 µg/mL = 100
B40	57 relative, AAA at 0.1 µg/mL = 100
B41	62 relative, AAA at 0.1 µg/mL = 100
B42	132 relative, AAA at 0.1 µg/mL = 100
B43	109 relative, AAA at 0.1 µg/mL = 100
B44	129 relative, AAA at 0.1 µg/mL = 100
B45	135 relative, AAA at 0.1 µg/mL = 100
